Measured values as given in patent US20210363255A1 (TRUEBINDING, published 2021).

T1: hPD-1 peptide No. 12 (TDKLAAFPED) (human)
T1 construct: also called PD1 peptide 12; peptide 12
T1 peptide: TDKLAAFPED


Columns and labels:
[1] = target: Purified human PD1 extracellular domain produced in E. coli fused to Fc (Ray Biotech) (human) (UniProt Q15116); test: blocking ELISA; E. coli hPD1 ECD-Fc coated, antibody at 20 ug/ml, competitor ligand biotinylated deglycosylated mPD-1 Fc
[2] = target: T1, hPD-1 peptide No. 12 (TDKLAAFPED); test: ELISA on hPD-1 peptide array

Chain of Purified human PD1 extracellular domain produced in E. coli fused to Fc (Ray Biotech) (human) (Q15116 25-170): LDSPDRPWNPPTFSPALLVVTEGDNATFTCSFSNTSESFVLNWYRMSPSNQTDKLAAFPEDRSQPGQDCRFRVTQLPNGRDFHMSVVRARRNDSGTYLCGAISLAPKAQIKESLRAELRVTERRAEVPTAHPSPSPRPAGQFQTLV

binding remaining, % of unblocked controls (% of unblocked controls) [1]	binding result [2]	Molecule
86	–	mab12 (LS-C131333, LS Bio) (antibody)
–	binds	IMT200 (antibody, V domains shown, Monoclonal raised against non-glycosylated His-tagged hPD-1 and detected with anti-mouse IgG-HRP; also called monoclonal antibody IMT200; anti-PD-1 mAb IMT200) VH: QVQLQQSGPELVKPGASVKISCKASGFAFSGSWMNWMKQRPGKGLEWIGRIYPGDGDTNYNGKSKGKATLTADTSSSTAYMQLSSLTSEDSAVYFCTRSTTILADYWGQGTTLTVSS VL: DIQMTQTTSSLSASLGDRVTISCRASQDIANYLNWYQQKPDGTVKLLIYYTSRKYSGVPSRFSGSGSGTDYSLTISNLDQEDIATYFCQQGKTLPWTFGGGTKLEIK
